Data published in the supplement of paper PMC11316812.
± gives the standard deviation of the averaged measurements.

Experiments:
MCF7 = experiment: percentage of EdU-negative (G0-arrested) nuclei per well, 72 h; higher = more G0 arrest; conditions: reference: sequence is the full UniProt precursor, the tested protein was the secreted form or ectodomain
hTERT-HMEC = experiment: as above; conditions: reference: sequence is the full UniProt precursor, the tested protein was the secreted form or ectodomain
[1] = protein concentration 0.0225 µM
[2] = protein concentration 0.00669 µM
[3] = protein concentration 0.0669 µM
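Further: secreted proteins added to cultured cells, EdU pulse at the end, nuclei found by Hoechst imaging, EdU status from nuclear versus surrounding ring intensity ratio, PBS as neutral control.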

Sequence | percentage of EdU-negative (MCF7; [1]) | percentage of EdU-negative (MCF7; protein concentration 0.225 µM) | percentage of EdU-negative (hTERT-HMEC; [1]) | percentage of EdU-negative (hTERT-HMEC; protein concentration 0.225 µM) | percentage of EdU-negative (MCF7; [2]) | percentage of EdU-negative (MCF7; [3]) | percentage of EdU-negative (hTERT-HMEC; [2]) | percentage of EdU-negative (hTERT-HMEC; [3])
MPGAAEALPTVTVTLVAGAVPPASGALTAHCIGGFWREVGVASDQSLVLTAPKRVEGLFLTLSGSNLTVKVAYNSSGSCEIEKIVGSEIDSTGKFAFPGHREIHVLDTDYEGYAILRVSLMWRGRNFRVLKYFTRSLEDKDRLGFWKFRELTADTGLYLAARPGRCAELLKEELI [Q6JVE9] | 26.5 ± 1.8% | 31 ± 2.1% | 5.03 ± 0.21% | 9.51 ± 1.1% |  |  |  | 
MFFWCACCLMVAWRVSASDAEHCPELPPVDNSIFVAKEVEGQILGTYVCIKGYHLVGKKTLFCNASKEWDNTTTECRLGHCPDPVLVNGEFSSSGPVNVSDKITFMCNDHYILKGSNRSQCLEDHTWAPPFPICKSRDCDPPGNPVHGYFEGNNFTLGSTISYYCEDRYYLVGVQEQQCVDGEWSSALPVCKLIQEAPKPECEKALLAFQESKNLCEAMENFMQQLKESGMTMEELKYSLELKKAELKAKLL | 24.2 ± 1.2% | 27.8 ± 3.5% | 5.33 ± 0.68% | 12 ± 1.5% |  |  |  | 
MKPALLEVMRMNRICRMVLATCLGSFILVIFYFQSMLHPVMRRNPFGVDICCRKGSRSPLQELYNPIQLELSNTAVLHQMRRDQVTDTCRANSATSRKRRVLTPNDLKHLVVDEDHELIYCYVPKVACTNWKRLMMVLTGRGKYSDPMEIPANEAHVSANLKTLNQYSIPEINHRLKSYMKFLFVREPFERLVSAYRNKFTQKYNISFHKRYGTKIIKRQRKNATQEALRKGDDVKFEEFVAYLIDPHTQREEPFNEHWQTVYSLCHPCHIHYDLVGKYETLEEDSNYVLQLAGVGSYLKFPTYAKSTRTTDEMTTEFFQNISSEHQTQLYEVYKLDFLMFNYSVPSYLKLE [Q9NPF2] | 23.2 ± 1.9% | 24.6 ± 1.8% | 5.07 ± 0.051% | 18.8 ± 3% |  |  |  | 
MLGQVVTLILLLLLKVYQGKGCQGSADHVVSISGVPLQLQPNSIQTKVDSIAWKKLLPSQNGFHHILKWENGSLPSNTSNDRFSFIVKNLSLLIKAAQQQDSGLYCLEVTSISGKVQTATFQVFVFESLLPDKVEKPRLQGQGKILDRGRCQVALSCLVSRDGNVSYAWYRGSKLIQTAGNLTYLDEEVDINGTHTYTCNVSNPVSWESHTLNLTQDCQNAHQEFRFWPFLVIIVILSALFLGTLACFCVWRRKRKEKQSETSPKEFLTIYEDVKDLKTRRNHEQEQTFPGGGSTIYSMIQSQSSAPTSQEPAYTLYSLIQPSRKSGSRKRNHSPSFNSTIYEVIGKSQPKAQNPARLSRKELENFDVYS [Q9BZW8] | 25.82 ± 0.11% | 26.1 ± 1.3% | 5.21 ± 0.31% | 6.56 ± 1.1% |  |  |  | 
MAQHGAMGAFRALCGLALLCALSLGQRPTGGPGCGPGRLLLGTGTDARCCRVHTTRCCRDYPGEECCSEWDCMCVQPEFHCGDPCCTTCRHHPCPPGQGVQSQGKFSFGFQCIDCASGTFSGGHEGHCKPWTDCTQFGFLTVFPGNKTHNAVCVPGSPPAEPLGWLTVVLLAVAACVLLLTSAQLGLHIWQLRSQCMWPRETQLLLEVPPSTEDARSCQFPEEERGERSAEEKGRLGDLWV [Q9Y5U5] |  |  |  |  | 24.9 ± 1.6% | 23.9 ± 0.75% | 5.37 ± 0.9% | 6.01 ± 1.5%
MAQRMTTQLLLLLVWVAVVGEAQTRIAWARTELLNVCMNAKHHKEKPGPEDKLHEQCRPWRKNACCSTNTSQEAHKDVSYLYRFNWNHCGEMAPACKRHFIQDTCLYECSPNLGPWIQQVDQSWRKERVLNVPLCKEDCEQWWEDCRTSYTCKSNWHKGWNWTSGFNKCAVGAACQPFHFYFPTPTVLCNEIWTHSYKVSNYSRGSGRCIQMWFDPAQGNPNEEVARFYAAAMSGAGPWAAWPFLLSLALMLLWLLS | 25.4 ± 1.9% | 24.4 ± 0.58% | 15.7 ± 0.18% | 10.3 ± 8.7% |  |  |  | 
MDRRSRAQQWRRARHNYNDLCPPIGRRAATALLWLSCSIALLRALATSNARAQQRAAAQQRRSFLNAHHRSGAQVFPESPESESDHEHEEADLELSLPECLEYEEEFDYETESETESEIESETDFETEPETAPTTEPETEPEDDRGPVVPKHSTFGQSLTQRLHALKLRSPDASPSRAPPSTQEPQSPREGEELKPEDKDPRDPEESKEPKEEKQRRRCKPKKPTRRDASPESPSKKGPIPIRRH | 27.2 ± 2.3% | 25.8 ± 4.4% | 3.95 ± 0.71% | 5.43 ± 0.11% |  |  |  | 
MVRMVPVLLSLLLLLGPAVPQENQDGRYSLTYIYTGLSKHVEDVPAFQALGSLNDLQFFRYNSKDRKSQPMGLWRQVEGMEDWKQDSQLQKAREDIFMETLKDIVEYYNDSNGSHVLQGRFGCEIENNRSSGAFWKYYYDGKDYIEFNKEIPAWVPFDPAAQITKQKWEAEPVYVQRAKAYLEEECPATLRKYLKYSKNILDRQDPPSVVVTSHQAPGEKKKLKCLAYDFYPGKIDVHWTRAGEVQEPELRGDVLHNGNGTYQSWVVVAVPPQDTAPYSCHVQHSSLAQPLVVPWEAS | 26.1 ± 2% | 26.1 ± 1.9% | 5.49 ± 0.45% | 5.19 ± 0.89% |  |  |  | 
